In patent US20040106569:
Marks after values point to notes of the source that are not given here.

Tests used:
[1] = tested on: GST-GSK3 fusion protein (Cell Signaling Technology)

Substance	non-radioactive in vitro kinase assay, phosphorylated substrate detected by Western blot [1]	Activity (phosphorylation of MPB) (myelin basic protein)	radioactive in vitro kinase assay, 32P incorporation by autoradiography (FIG. 11B) (myelin basic protein)
PKNbeta kinase domain comprising amino acids 535-889	Only the full length wildtype protein kinase N beta or the kinase domain as defined in example 9 were suitable to phosphorylate the substrate	+*	the full length wildtype protein kinase N beta as well as the kinase domain show activity
PKNbeta kinase domain having a mutation at position 588 from lysine to arginine	–	-*	–
PKNbeta kinase domain having a mutation at position 588 from lysine to glutamic acid	–	-*	–
PKNbeta kinase domain with threonine 718 changed to alanine	–	-*	–
PKNbeta kinase domain with threonine 718 changed to aspartic acid	–	-*!	–
PKNbeta kinase domain with threonine 718 changed to glutamic acid	–	-*!	–
